Experimental data published in PMC3892207 (Journal of the American Chemical Society, 2013).
Substitutions are numbered along the chain they refer to. Names and notes keep the numbering of the source.

T1: S100A9(C3S) with D98A (S100A9 subunit of CP-Ser(D98A)) (human, UniProt P06702 1-114, C3S | D98A)
T1 sequence (looked up): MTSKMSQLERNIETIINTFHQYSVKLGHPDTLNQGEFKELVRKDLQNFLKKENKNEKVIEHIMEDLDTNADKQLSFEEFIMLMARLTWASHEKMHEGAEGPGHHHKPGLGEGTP

T2: S100A9(C3S) with H104A (S100A9 subunit of CP-Ser(H104A)) (human, UniProt P06702 1-114, C3S | H104A)
T2 sequence (looked up): T1 sequence (looked up) with A98D, H104A

T3: S100A9(C3S) with E99A (S100A9 subunit of CP-Ser(E99A)) (human, UniProt P06702 1-114, C3S | E99A)
T3 sequence (looked up): T1 sequence (looked up) with A98D, E99A

T4: S100A9(C3S) with H105A (S100A9 subunit of CP-Ser(H105A)) (human, UniProt P06702 1-114, C3S | H105A)
T4 sequence (looked up): T1 sequence (looked up) with A98D, H105A

T5: S100A9(C3S) truncated after residue 101 (S100A9 subunit of CP-Ser-Δ101) (human, UniProt P06702 1-90, C3S)
T5 sequence: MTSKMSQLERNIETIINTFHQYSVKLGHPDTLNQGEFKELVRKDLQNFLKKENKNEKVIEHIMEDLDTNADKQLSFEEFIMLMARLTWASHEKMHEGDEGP

T6: human-mouse S100A9 chimera (S100A9 subunit of CP-Ser-mT) (human | mouse, UniProt P06702 1-90, C3S)
T6 sequence: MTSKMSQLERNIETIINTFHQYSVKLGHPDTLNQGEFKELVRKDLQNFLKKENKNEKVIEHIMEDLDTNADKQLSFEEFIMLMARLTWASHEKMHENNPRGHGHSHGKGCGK

T7: S100A9(C3S) (human, UniProt P06702 1-90, C3S)
T7 sequence: T1 sequence (looked up) with A98D

T8: S100A9(C3S) with E96A (S100A9 subunit of CP-Ser(E96A)) (human, UniProt P06702 1-114, C3S | E96A)
T8 sequence (looked up): T1 sequence (looked up) with E96A, A98D

T9: S100A9(C3S) with H103A (S100A9 subunit of CP-Ser(H103A)) (human, UniProt P06702 1-114, C3S | H103A)
T9 sequence (looked up): T1 sequence (looked up) with A98D, H103A

T10: S100A9(C3S) with K106A (S100A9 subunit of CP-Ser(K106A)) (human, UniProt P06702 1-114, C3S | K106A)
T10 sequence (looked up): T1 sequence (looked up) with A98D, K106A

T11: S100A9(C3S) with E111A (S100A9 subunit of CP-Ser(E111A)) (human, UniProt P06702 1-114, C3S | E111A)
T11 sequence (looked up): T1 sequence (looked up) with A98D, E111A

B1: S100A8(C42S) (natural protein, human)
chain: MLTELEKALNSIIDVYHKYSLIKGNFHAVYRDDLKKLLETESPQYIRKKGADVWFKELDINTDGAVNFQEFLILVIKMGVAAHKKSHEESHKE
B2: CP-Ser(E96A) (αβ heterodimer) (complex, human)
chain 1: B1 chain
chain 2: T1 sequence (looked up) with E96A, A98D
B3: CP-Ser-AHA(K106H) (αβ heterodimer) (complex, human)
chain 1: B1 chain
chain 2: T1 sequence (looked up) with A98D, H103A, H105A, K106H
B4: CP-Ser-AHA (αβ heterodimer) (complex, human)
chain 1: B1 chain
chain 2: T1 sequence (looked up) with A98D, H103A, H105A
B5: CP-Ser-AAA(L109H)(E111H) (αβ heterodimer) (complex, human)
chain 1: B1 chain
chain 2: T1 sequence (looked up) with A98D, H103A, H104A, H105A, L109H, E111H
B6: CP-Ser(H104A) (αβ heterodimer) (complex, human)
chain 1: B1 chain
chain 2: T1 sequence (looked up) with A98D, H104A
B7: CP-Ser(K106A) (αβ heterodimer) (complex, human)
chain 1: B1 chain
chain 2: T1 sequence (looked up) with A98D, K106A
B8: CP-Ser-AAA (αβ heterodimer) (complex, human)
chain 1: B1 chain
chain 2: T1 sequence (looked up) with A98D, H103A, H104A, H105A
B9: CP-Ser(D98A) (αβ heterodimer) (complex, human)
chain 1: B1 chain
chain 2: T1 sequence (looked up)
B10: CP-Ser(H103A) (αβ heterodimer) (complex, human)
chain 1: B1 chain
chain 2: T1 sequence (looked up) with A98D, H103A
B11: CP-Ser-mT (αβ heterodimer) (complex, human | mouse)
chain 1: B1 chain
chain 2: T6 sequence
B12: CP-Ser(H105A) (αβ heterodimer) (complex, human)
chain 1: B1 chain
chain 2: T1 sequence (looked up) with A98D, H105A
B13: CP-Ser-Δ101 (αβ heterodimer) (complex, human)
chain 1: B1 chain
chain 2: T5 sequence
B14: CP-Ser(E111A) (αβ heterodimer) (complex, human)
chain 1: B1 chain
chain 2: T1 sequence (looked up) with A98D, E111A
B15: CP-Ser(E99A) (αβ heterodimer) (complex, human)
chain 1: B1 chain
chain 2: T1 sequence (looked up) with A98D, E99A
B16: CP-Ser-AAE (αβ heterodimer) (complex, human)
chain 1: B1 chain
chain 2: T1 sequence (looked up) with A98D, H103A, H104A, H105E
B17: CP-Ser-AAA(K106H) (αβ heterodimer) (complex, human)
chain 1: B1 chain
chain 2: T1 sequence (looked up) with A98D, H103A, H104A, H105A, K106H
B18: CP-Ser (αβ heterodimer of S100A8(C42S) and S100A9(C3S)) (complex, human)
chain 1: B1 chain
chain 2: T1 sequence (looked up) with A98D

Key:
Test in all cases: SEC
[1] = biological target: T1, S100A9(C3S) with D98A (S100A9 subunit …
[2] = biological target: T2, S100A9(C3S) with H104A (S100A9 subunit …
[3] = biological target: T3, S100A9(C3S) with E99A (S100A9 subunit …
[4] = biological target: T4, S100A9(C3S) with H105A (S100A9 subunit …
[5] = biological target: T5, S100A9(C3S) truncated after residue 101 …
[6] = biological target: T6, human-mouse S100A9 chimera (S100A9 …)
S100A9(C3S) = biological target: T7, S100A9(C3S)
[7] = biological target: T8, S100A9(C3S) with E96A (S100A9 subunit …
[8] = biological target: T9, S100A9(C3S) with H103A (S100A9 subunit …
[9] = biological target: T10, S100A9(C3S) with K106A (S100A9 subunit …
[10] = biological target: T11, S100A9(C3S) with E111A (S100A9 subunit …
SEC = biological target: the molecule itself

Binder	binding result (SEC)	further results
B1		binding result [1]: binds; binding result [2]: binds; binding result [3]: binds; binding result [4]: binds; binding result [5]: binds; binding result [6]: binds; binding result (S100A9(C3S)): binds; binding result [7]: binds; binding result [8]: binds; binding result [9]: binds; binding result [10]: binds
B2	binds	
B3	binds	
B4	binds	
B5	binds	
B6	binds	
B7	binds	
B8	binds	
B9	binds	
B10	binds	
B11	binds	
B12	binds	
B13	binds	
B14	binds	
B15	binds	
B16	binds	
B17	binds	
B18	binds	
